Measured values from patent US6465254, “Mutant loxP site and applications thereof” (Sumitomo Pharmaceuticals Company, Limited).

biological target: T1, Cre recombinase (UniProt P06956 P06956:1-343); experiment: self x self; intermediate 6; details: tags: expressed from recombinant adenovirus AxCANCre in 293 cells
T1 sequence (P06956 whole entry, one chain of several): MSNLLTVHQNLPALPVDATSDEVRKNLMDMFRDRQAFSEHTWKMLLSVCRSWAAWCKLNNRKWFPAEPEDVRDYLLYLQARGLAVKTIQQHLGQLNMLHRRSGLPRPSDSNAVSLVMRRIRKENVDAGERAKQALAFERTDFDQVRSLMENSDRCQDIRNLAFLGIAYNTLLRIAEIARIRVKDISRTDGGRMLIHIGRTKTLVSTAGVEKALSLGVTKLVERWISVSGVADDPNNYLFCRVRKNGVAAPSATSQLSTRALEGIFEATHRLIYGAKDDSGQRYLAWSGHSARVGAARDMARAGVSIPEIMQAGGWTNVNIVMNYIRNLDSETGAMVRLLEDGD

Binder	activity [grade 0-9 final product]
mutant loxP #2373 (dsDNA) DNA 1: ATAACTTCGTATAAGGTATTCTATACGAAGTTAT DNA 2: ATAACTTCGTATAGAATACCTTATACGAAGTTAT	1
mutant loxP #3272 (dsDNA) DNA 1: ATAACTTCGTATAATCTATCCTATACGAAGTTAT DNA 2: ATAACTTCGTATAGGATAGATTATACGAAGTTAT	2
mutant loxP #3372 (dsDNA) DNA 1: ATAACTTCGTATAATTTATCCTATACGAAGTTAT DNA 2: ATAACTTCGTATAGGATAAATTATACGAAGTTAT	1
mutant loxP #3373 (dsDNA) DNA 1: ATAACTTCGTATAATTTATTCTATACGAAGTTAT DNA 2: ATAACTTCGTATAGAATAAATTATACGAAGTTAT	2

biological target: T1, Cre recombinase; experiment: self x self; intermediate 6; details: tags: expressed from recombinant adenovirus AxCANCre in 293 cells; remark: another data set of the same source
Method: (§1) Substrate DNA (1 μg) prepared in (3) and cell extract containing Cre (10 μl) prepared in (1) were incubated at 37° C. for 30 min in a 50 μl volume of buffer containing 50 mM Tris-HCl (pH 7.5)/10 mM MgCl2/1 mg/ml bovine serum albumin/1 mM phenylmethylsulfonyl fluoride (PMSF)/5 μg/ml aprotinin. After completion of the reaction, 45 μl of TE buffer (pH 8.0) and 5 μl of EDTA solution (pH 8.0) were added to the reaction mixture, extracted with phenol/chloroform and with chloroform, followed ethanol precipitation. The recovered DNA was dissolveld in 30 μl of TE buffer (pH 8.0) containing RNase A (20 μg/ml). Half volume thereof was digested with restriction enzyme BsaHI. The DNA bands detected by ethidium bromide (EtBr) staining after agarose gel electrophoresis, were analyzed.
(§2) Before recombination mediated by Cre, restriction enzyme BsaHI digestion of linear substrate DNA (approx. 4.1 kb) generates four bands of 2.7 kb, 610 bp, 380 bp and 360 bp. On the other hand, as a result of recombination of substrate DNA mediated by Cre, a circular DNA of approx. 4.0 kb containing one mutant loxP, and a linear DNA of approx. 50 bp consisting of only mutant loxP, are produced. Digestion of these DNA with restriction enzyme BsaHI generates four bands of 2.7 kb, 920 bp, 380 bp and 50 bp (refer to FIG. 6).

Binder	activity [grade 0-9 final product]
mutant loxP #12 (dsDNA) DNA 1: ATAACTTCGTATATTGTATGCTATACGAAGTTAT DNA 2: ATAACTTCGTATAGCATACAATATACGAAGTTAT	3
mutant loxP #23 (dsDNA) DNA 1: ATAACTTCGTATAAGGTATGCTATACGAAGTTAT DNA 2: ATAACTTCGTATAGCATACCTTATACGAAGTTAT	5
mutant loxP #32 (dsDNA) DNA 1: ATAACTTCGTATAATCTATGCTATACGAAGTTAT DNA 2: ATAACTTCGTATAGCATAGATTATACGAAGTTAT	3
mutant loxP #33 (dsDNA) DNA 1: ATAACTTCGTATAATTTATGCTATACGAAGTTAT DNA 2: ATAACTTCGTATAGCATAAATTATACGAAGTTAT	6

biological target: T1, Cre recombinase; experiment: self x self; intermediate 1; details: tags: expressed from recombinant adenovirus AxCANCre in 293 cells

Binder	activity [grade 0-9 final product]
mutant loxP #5272 (dsDNA) DNA 1: ATAACTTCGTATAATGTTTCCTATACGAAGTTAT DNA 2: ATAACTTCGTATAGGAAACATTATACGAAGTTAT	4
mutant loxP #5373 (dsDNA) DNA 1: ATAACTTCGTATAATGTCTTCTATACGAAGTTAT DNA 2: ATAACTTCGTATAGAAGACATTATACGAAGTTAT	2
mutant loxP #6272 (dsDNA) DNA 1: ATAACTTCGTATAATGTAACCTATACGAAGTTAT DNA 2: ATAACTTCGTATAGGTTACATTATACGAAGTTAT	2
mutant loxP #6373 (dsDNA) DNA 1: ATAACTTCGTATAATGTAGTCTATACGAAGTTAT DNA 2: ATAACTTCGTATAGACTACATTATACGAAGTTAT	2

biological target: T1, Cre recombinase; experiment: self x self; intermediate 4; details: tags: expressed from recombinant adenovirus AxCANCre in 293 cells

Binder	activity [grade 0-9 final product]
mutant loxP #2172 (dsDNA) DNA 1: ATAACTTCGTATAACGTATCCTATACGAAGTTAT DNA 2: ATAACTTCGTATAGGATACGTTATACGAAGTTAT	2
mutant loxP #3171 (dsDNA) DNA 1: ATAACTTCGTATAATATATACTATACGAAGTTAT DNA 2: ATAACTTCGTATAGTATATATTATACGAAGTTAT	7
mutant loxP #4271 (dsDNA) DNA 1: ATAACTTCGTATAATGAATACTATACGAAGTTAT DNA 2: ATAACTTCGTATAGTATTCATTATACGAAGTTAT	2
mutant loxP #4272 (dsDNA) DNA 1: ATAACTTCGTATAATGAATCCTATACGAAGTTAT DNA 2: ATAACTTCGTATAGGATTCATTATACGAAGTTAT	1
mutant loxP #4371 (dsDNA) DNA 1: ATAACTTCGTATAATGGATACTATACGAAGTTAT DNA 2: ATAACTTCGTATAGTATCCATTATACGAAGTTAT	2

biological target: T1, Cre recombinase; experiment: self x self; intermediate 5; details: tags: expressed from recombinant adenovirus AxCANCre in 293 cells
Method: as §1, §2

Binder	activity [grade 0-9 final product]
mutant loxP #42 (dsDNA) DNA 1: ATAACTTCGTATAATGAATGCTATACGAAGTTAT DNA 2: ATAACTTCGTATAGCATTCATTATACGAAGTTAT	6
mutant loxP #43 (dsDNA) DNA 1: ATAACTTCGTATAATGGATGCTATACGAAGTTAT DNA 2: ATAACTTCGTATAGCATCCATTATACGAAGTTAT	6
mutant loxP #31 (dsDNA) DNA 1: ATAACTTCGTATAATATATGCTATACGAAGTTAT DNA 2: ATAACTTCGTATAGCATATATTATACGAAGTTAT	7

biological target: T1, Cre recombinase; experiment: self x self; intermediate 4; details: tags: expressed from recombinant adenovirus AxCANCre in 293 cells; remark: another data set of the same source
Method: as §1, §2

Binder	activity [grade 0-9 final product]
mutant loxP #11 (dsDNA) DNA 1: ATAACTTCGTATAGTGTATGCTATACGAAGTTAT DNA 2: ATAACTTCGTATAGCATACACTATACGAAGTTAT	2
mutant loxP #13 (dsDNA) DNA 1: ATAACTTCGTATACTGTATGCTATACGAAGTTAT DNA 2: ATAACTTCGTATAGCATACAGTATACGAAGTTAT	3
mutant loxP #21 (dsDNA) DNA 1: ATAACTTCGTATAACGTATGCTATACGAAGTTAT DNA 2: ATAACTTCGTATAGCATACGTTATACGAAGTTAT	5
mutant loxP #22 (dsDNA) DNA 1: ATAACTTCGTATAAAGTATGCTATACGAAGTTAT DNA 2: ATAACTTCGTATAGCATACTTTATACGAAGTTAT	5

biological target: T1, Cre recombinase; experiment: self x self; intermediate 3; details: tags: expressed from recombinant adenovirus AxCANCre in 293 cells
Method: as §1, §2

Binder	activity [grade 0-9 final product]
mutant loxP #72 (dsDNA) DNA 1: ATAACTTCGTATAATGTATCCTATACGAAGTTAT DNA 2: ATAACTTCGTATAGGATACATTATACGAAGTTAT	7
mutant loxP #73 (dsDNA) DNA 1: ATAACTTCGTATAATGTATTCTATACGAAGTTAT DNA 2: ATAACTTCGTATAGAATACATTATACGAAGTTAT	1

biological target: T1, Cre recombinase; experiment: self x self; intermediate 1; details: tags: expressed from recombinant adenovirus AxCANCre in 293 cells; remark: another data set of the same source
Method: as §1, §2

Binder	activity [grade 0-9 final product]
mutant loxP #41 (dsDNA) DNA 1: ATAACTTCGTATAATGCATGCTATACGAAGTTAT DNA 2: ATAACTTCGTATAGCATGCATTATACGAAGTTAT	7
mutant loxP #51 (dsDNA) DNA 1: ATAACTTCGTATAATGTGTGCTATACGAAGTTAT DNA 2: ATAACTTCGTATAGCACACATTATACGAAGTTAT	9
mutant loxP #52 (dsDNA) DNA 1: ATAACTTCGTATAATGTTTGCTATACGAAGTTAT DNA 2: ATAACTTCGTATAGCAAACATTATACGAAGTTAT	9
mutant loxP #53 (dsDNA) DNA 1: ATAACTTCGTATAATGTCTGCTATACGAAGTTAT DNA 2: ATAACTTCGTATAGCAGACATTATACGAAGTTAT	8
mutant loxP #61 (dsDNA) DNA 1: ATAACTTCGTATAATGTACGCTATACGAAGTTAT DNA 2: ATAACTTCGTATAGCGTACATTATACGAAGTTAT	8
mutant loxP #62 (dsDNA) DNA 1: ATAACTTCGTATAATGTAAGCTATACGAAGTTAT DNA 2: ATAACTTCGTATAGCTTACATTATACGAAGTTAT	8
mutant loxP #63 (dsDNA) DNA 1: ATAACTTCGTATAATGTAGGCTATACGAAGTTAT DNA 2: ATAACTTCGTATAGCCTACATTATACGAAGTTAT	9

biological target: T1, Cre recombinase; experiment: self x self; intermediate 3; details: tags: expressed from recombinant adenovirus AxCANCre in 293 cells; remark: another data set of the same source

Binder	activity [grade 0-9 final product]
mutant loxP #2171 (dsDNA) DNA 1: ATAACTTCGTATAACGTATACTATACGAAGTTAT DNA 2: ATAACTTCGTATAGTATACGTTATACGAAGTTAT	3
mutant loxP #2273 (dsDNA) DNA 1: ATAACTTCGTATAAAGTATTCTATACGAAGTTAT DNA 2: ATAACTTCGTATAGAATACTTTATACGAAGTTAT	4
mutant loxP #2371 (dsDNA) DNA 1: ATAACTTCGTATAAGGTATACTATACGAAGTTAT DNA 2: ATAACTTCGTATAGTATACCTTATACGAAGTTAT	2
mutant loxP #3271 (dsDNA) DNA 1: ATAACTTCGTATAATCTATACTATACGAAGTTAT DNA 2: ATAACTTCGTATAGTATAGATTATACGAAGTTAT	4
mutant loxP #4372 (dsDNA) DNA 1: ATAACTTCGTATAATGGATCCTATACGAAGTTAT DNA 2: ATAACTTCGTATAGGATCCATTATACGAAGTTAT	2
